The target of assay [1] is GLP-1 receptor.
Assay [2] addresses GLP-1 receptor. This is another data set of the same source.

Turning to “[Cys^21(mPEG5000-MAL)] Exendin-4 (peptide)”, in assay [1], the EC50 (nM), GLP-1 receptor agonistic activity (CRE-luciferase reporter in HEK293 cells) came out at 22.5 nM.

Substance Exendin-4 (peptide) displayed an EC50, GLP-1 receptor agonistic activity (CRE-luciferase reporter in HEK293 cells) in assay [2] of 0.00193 µM.

For the origin of these results see patent US20130310310A1.
